Measurements: article PMC12833424

tested on: IgG1-DS5 (human IgG1/kappa framework, scFv phage library derived); assay: SPR steady state; conditions: 2'-O-methyl; ELISA: streptavidin or anti-FAM plates, PBS/0.05% Tween 20 washes, BSA or Blotto block; EMSA: PBS, 1 h, room temperature, 20 uM oligo, 25 ng/uL IgG, 5% …

**Q.** For “UUUUUCCUGUGUCCUGAAGAAAGCA / UUUCUUCAG [T2 duplex without biotin]”, which Kd is on record?
**A.** 440 nM

same assay, conditions: all 2'-O-methyl, 5' BCN on strand 2, 3' azide on strand 3, reacting to triazole, ELISA: streptavidin or anti-FAM plates, PBS/0.05% Tween 20 washes, BSA or Blotto block, EMSA: PBS, 1 h, room temperature, 20 uM oligo, 25 ng/uL IgG

**Q.** With “UUUUUCCUGUGUCCUGAAGAAAGCAAAGACAUCUGGACAU / UUUCUUCAGGACACAG / GUCCAGAUGUCUUUGC [Temp1:BCN-haplomer-1:azide-haplomer-2 complex]” as the sequence, how does the Kd read?
**A.** 330 nM

tested on: IgG1-DS5 (human IgG1/kappa framework, scFv phage library derived); assay: ELISA; conditions: 2'-O-methyl; 3' azide on strand 2; ELISA: streptavidin or anti-FAM plates, PBS/0.05% Tween 20 washes, BSA or Blotto block; EMSA: PBS, 1 h, room temperature, 20 uM oligo, 25 ng/uL IgG, 5% …

**Q.** For “UUUUUCCUGUGUCCUGAAGAAAGCAAAGACAUCUGGACAU / GUCCAGAUGUCUUUGC [D2 template:azide-haplomer-2]”, which binding signal (% of full complex ELISA slope) is on record?
**A.** 0

same assay, conditions: 2'-O-methyl; ELISA: streptavidin or anti-FAM plates, PBS/0.05% Tween 20 washes, BSA or Blotto block; EMSA: PBS, 1 h, room temperature, 20 uM oligo, 25 ng/uL IgG, 5% …

**Q.** Which binding signal (% of full complex ELISA slope) does the source give for “UUUUUCCUGUGUCCUGAAGAAAGCAAAGACAUCUGGACAU / UUUCUUCAGGACACAG [D3 template:oligo-1]” here?
**A.** 76.1

**Q.** “UUUUUCUGAAGAA / UUUCUUCAG [T4 TempTr3:9-co]” was tested. Which binding signal (% of T2 ELISA slope) did it give?
**A.** 0

**Q.** How did the binding signal (% of T2 ELISA slope) turn out when “UUUUUCGUGUGUGCUGAAGAAA / UUUCUUCAG [T8 TempTr7:9-co]” was run?
**A.** 0

**Q.** For “UUUUUCCUGUGUCCUGAAGAAAGCAAAGACAUCUGGACAU / AUGUCUUUGCUUUCUUCAGG [D6 template:contig. complement-1]”, which binding signal (% of full complex ELISA slope) is on record?
**A.** 0.8

**Q.** Which binding signal (% of full complex ELISA slope) does the source give for “UUUUUCCUGUGUCCUGAAGAAAGCAAAGACAUCUGGACAU / UUUCUUCAGGACACAG / GUCCAGAUGUCUUUGC [D5 template:oligo-1:oligo-2]” here?
**A.** 45

**Q.** How did the binding signal (% of full complex ELISA slope) turn out when “UUUUUCCUGUGUCCUGAAGAAAGCA / UUUCUUCAGGACACAG [T1 TempTr1:oligo-1]” was run?
**A.** 100

**Q.** For “UUUUUCUCUCUGGCUGAAGAAA / UUUCUUCAG [T5 TempTr4:9-co]”, which binding signal (% of T2 ELISA slope) is on record?
**A.** 0

**Q.** How did the binding signal (% of full complex ELISA slope) turn out when “UUUUUCCUGUGUCCUGAAGAAAGCAAAGACAUCUGGACAU / GUCCAGAUGUCUUUGC [D4 template:oligo-2]” was run?
**A.** 0

**Q.** How did the binding signal (% of T2 ELISA slope) turn out when “UUUCUGAAGAAAUUUCCUGUGUC / UUUCUUCAG [T10 TempFlp:9-co]” was run?
**A.** 0

**Q.** For “UUUUUCCUGUGUCCUGAAGAAAGCA / UUUCUUCAG [T2 TempTr1:9-co]”, which binding signal (% of full complex ELISA slope) is on record?
**A.** 100

**Q.** How did the binding signal (% of T2 ELISA slope) turn out when “UUUUUCCUGUGUCACAAUAGAG / CUCUAUUGU [T9 TempTr8:complementary 9-mer]” was run?
**A.** 0

**Q.** How did the binding signal (% of full complex ELISA slope) turn out when “UUUUUCCUGUGUCCUGAAGAAA / UUUCUUCAG [T3 TempTr2:9-co]” was run?
**A.** 100
